From the supplement of paper PMC9233669
This sample holds only a part of the variants without activity.

Experiments:
biotinyl-Trp-oxazolone = experiment: self-aminoacylation, catalytic enhancement (BWO) (fold over background); higher = more active; k-Seq, kA / k0A0; sequences stand for … in GGGAAUGGAUCCACAUCUACGAAUUC…UUCACUGCAGACUUGACGAAGCUG
How it was run: (§1)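 Mutagenized RNA pools (0.43 μM; 21-nt variable region) were treated with 2–1250 μM of each biotinyl-aminoacyl-oxazolone. Conditions were 50 μL HEPES/NaCl/KCl/MgCl2/CaCl2 buffer, 5% acetonitrile, pH 6.9–7.0, room temperature, 90 minutes. Catalytic enhancement, the median kA relative to the uncatalyzed rate, was derived from streptavidin capture, qPCR and Illumina sequencing.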

biotinyl-Phe-oxazolone = experiment: self-aminoacylation, catalytic enhancement (BFO) (fold over background); higher = more active; k-Seq, kA / k0A0; sequences stand for … in GGGAAUGGAUCCACAUCUACGAAUUC…UUCACUGCAGACUUGACGAAGCUG
How it was run: as §1

biotinyl-Met-oxazolone = experiment: self-aminoacylation, catalytic enhancement (BMO) (fold over background); higher = more active; k-Seq, kA / k0A0; sequences stand for … in GGGAAUGGAUCCACAUCUACGAAUUC…UUCACUGCAGACUUGACGAAGCUG
How it was run: as §1

biotinyl-Val-oxazolone = experiment: self-aminoacylation, catalytic enhancement (BVO) (fold over background); higher = more active; k-Seq, kA / k0A0; sequences stand for … in GGGAAUGGAUCCACAUCUACGAAUUC…UUCACUGCAGACUUGACGAAGCUG
How it was run: as §1

biotinyl-Leu-oxazolone = experiment: self-aminoacylation, catalytic enhancement (BLO) (fold over background); higher = more active; k-Seq, kA / k0A0; sequences stand for … in GGGAAUGGAUCCACAUCUACGAAUUC…UUCACUGCAGACUUGACGAAGCUG
How it was run: as §1

biotinyl-Ile-oxazolone = experiment: self-aminoacylation, catalytic enhancement (BIO) (fold over background); higher = more active; k-Seq, kA / k0A0; sequences stand for … in GGGAAUGGAUCCACAUCUACGAAUUC…UUCACUGCAGACUUGACGAAGCUG
How it was run: as §1

| Sequence | self-aminoacylation (biotinyl-Trp-oxazolone) | self-aminoacylation (biotinyl-Phe-oxazolone) | self-aminoacylation (biotinyl-Met-oxazolone) | self-aminoacylation (biotinyl-Val-oxazolone) | self-aminoacylation (biotinyl-Leu-oxazolone) | self-aminoacylation (biotinyl-Ile-oxazolone) |
| --- | --- | --- | --- | --- | --- | --- |
| AUUACCCUGGUCAUCGAGCGG [Fam2.1 aminoacylation ribozyme variant] | 1.61 | 1.12 | 2.38 | 1.8 | 2.9 | 1.95 |
| AUUACCCUGGUCAUCGAGGAA [Fam2.1 aminoacylation ribozyme variant] | 4.88 | 8.38 | 5.91 | 2.44 | 5.25 | 2.3 |
| AUUACCCUGGUCAUCGAGGGC [Fam2.1 aminoacylation ribozyme variant] | 1.12 | 1.09 | 1.77 | 1.24 | 1.56 | 1.31 |
| AUUACCCUGGUCAUCGAGGUA [Fam2.1 aminoacylation ribozyme variant] | 5.45 | 10.2 | 7.24 | 3.16 | 5.68 | 2.38 |
| AUUACCCUGGUCAUCGAGUAA [Fam2.1 aminoacylation ribozyme variant] | 25.3 | 118 | 28.9 | 10.1 | 26.7 | 8.7 |
| AUUACCCUGGUCAUCGAGUAG [Fam2.1 aminoacylation ribozyme variant] | 4.18 | 13.9 | 4.51 | 2.64 | 4.67 | 2.15 |
| AUUACCCUGGUCAUCGAUUGU [Fam2.1 aminoacylation ribozyme variant] | 0.386 | 0.73 | 0.73 | 0.785 | 0.736 | 0.753 |
| AUUACCCUGGUCAUCGCAUGA [Fam2.1 aminoacylation ribozyme variant] | 3.77 | 13.8 | 3.2 | 1.75 | 3.5 | 2.01 |
| AUUACCCUGGUCAUCGCGUGG [Fam2.1 aminoacylation ribozyme variant] | 5.28 | 35.6 | 3.88 | 3.14 | 6.77 | 2.8 |
| AUUACCCUGGUCAUCGGGAGA [Fam2.1 aminoacylation ribozyme variant] | 5.01 | 2.87 | 2.97 | 2.41 | 4.4 | 1.71 |
| AUUACCCUGGUCAUCGGGUCA [Fam2.1 aminoacylation ribozyme variant] | 9.71 | 22.5 | 5.33 | 4.01 | 6.66 | 3.61 |
| AUUACCCUGGUCAUCGUGAGA [Fam2.1 aminoacylation ribozyme variant] | 0.867 | 0.858 | 0.897 | 0.789 | 0.777 | 0.703 |
| AUUACCCUGGUCAUCUAGUAA [Fam2.1 aminoacylation ribozyme variant] | 0.903 | 1.32 | 1.06 | 1.08 | 1.15 | 1.1 |
| AUUACCCUGGUCAUCUGGUGA [Fam2.1 aminoacylation ribozyme variant] | 4.53 | 31.1 | 5 | 2.72 | 5.37 | 3.08 |
| AUUACCCUGGUCAUGGAGUGA [Fam2.1 aminoacylation ribozyme variant] | 5.8 | 19.7 | 4.69 | 3.02 | 4.95 | 3.07 |
| AUUACCCUGGUCAUGGAGUGC [Fam2.1 aminoacylation ribozyme variant] | 0.556 | 0.89 | 0.858 | 1.17 | 1.24 | 1.05 |
| AUUACCCUGGUCAUGGAGUGU [Fam2.1 aminoacylation ribozyme variant] | 2.57 | 3.83 | 2.46 | 1.98 | 2.73 | 1.72 |
| AUUACCCUGGUCAUGGAGUUA [Fam2.1 aminoacylation ribozyme variant] | 0.695 | 0.664 | 1.23 | 1.13 | 0.899 | 1.04 |
| AUUACCCUGGUCAUGGGGUGA [Fam2.1 aminoacylation ribozyme variant] | 9.45 | 66.9 | 8.63 | 4.17 | 10.1 | 4.02 |
| AUUACCCUGGUCAUGUAGUGA [Fam2.1 aminoacylation ribozyme variant] | 2.4 | 4.73 | 1.97 | 1.81 | 2 | 1.77 |
| AUUACCCUGGUCAUUGAGUGA [Fam2.1 aminoacylation ribozyme variant] | 10.8 | 44.1 | 9.01 | 4.49 | 8.58 | 4.27 |
| AUUACCCUGGUCAUUGAGUGC [Fam2.1 aminoacylation ribozyme variant] | 0.798 | 1.08 | 0.995 | 0.993 | 1.15 | 0.962 |
| AUUACCCUGGUCAUUGGGUGA [Fam2.1 aminoacylation ribozyme variant] | 12.9 | 93.4 | 12.1 | 5.6 | 13.1 | 5.58 |
| AUUACCCUGGUCCUAGAGUGA [Fam2.1 aminoacylation ribozyme variant] | 10.8 | 45.8 | 9.27 | 4.85 | 9.4 | 4.03 |
| AUUACCCUGGUCCUCGAGAGA [Fam2.1 aminoacylation ribozyme variant] | 0.889 | 0.376 | 0.757 | 1.28 | 1.32 | 0.884 |
| AUUACCCUGGUCCUCGAGCGA [Fam2.1 aminoacylation ribozyme variant] | 1.68 | 3.24 | 1.97 | 1.77 | 1.25 | 1.46 |

| Sequence | self-aminoacylation (biotinyl-Trp-oxazolone) | self-aminoacylation (biotinyl-Phe-oxazolone) | self-aminoacylation (biotinyl-Met-oxazolone) | self-aminoacylation (biotinyl-Val-oxazolone) | self-aminoacylation (biotinyl-Leu-oxazolone) | self-aminoacylation (biotinyl-Ile-oxazolone) |
| --- | --- | --- | --- | --- | --- | --- |
| AUUACCCUGGUCCUCGAGUAA [Fam2.1 aminoacylation ribozyme variant] | 1.64 | 0.542 | 0.966 | 1.36 | 1.33 | 1.35 |
| AUUACCCUGGUCCUCGAGUGA [Fam2.1 aminoacylation ribozyme variant] | 3.77 | 6.54 | 3.43 | 2.24 | 3.55 | 2.07 |
| AUUACCCUGGUCCUCGAGUGU [Fam2.1 aminoacylation ribozyme variant] | 3.02 | 2.62 | 2.78 | 1.73 | 3.22 | 1.59 |
| AUUACCCUGGUCGUCGGGUGA [Fam2.1 aminoacylation ribozyme variant] | 5.14 | 26.3 | 3.87 | 2.98 | 4.72 | 2.86 |
| AUUACCCUGGUCUUCGACUGA [Fam2.1 aminoacylation ribozyme variant] | 0.675 | 0.68 | 0.832 | 0.737 | 0.717 | 0.992 |
| AUUACCCUGGUGAACGAGUGA [Fam2.1 aminoacylation ribozyme variant] | 2.82 | 2.79 | 2.47 | 1.65 | 2.25 | 1.42 |
| AUUACCCUGGUGAUCAAGUGA [Fam2.1 aminoacylation ribozyme variant] | 4.2 | 8.79 | 3.19 | 1.92 | 3.25 | 1.81 |
| AUUACCCUGGUGAUCGAAUGA [Fam2.1 aminoacylation ribozyme variant] | 0.949 | 0.432 | 0.846 | 1.09 | 1.02 | 0.957 |
| AUUACCCUGGUGAUCGAGUGA [Fam2.1 aminoacylation ribozyme variant] | 5.95 | 25.1 | 5.19 | 2.69 | 5.14 | 2.56 |
| AUUACCCUGGUGAUCGAGUGG [Fam2.1 aminoacylation ribozyme variant] | 1.82 | 3.23 | 1.79 | 1.26 | 1.63 | 1.11 |
| AUUACCCUGGUUAUCGAGUUA [Fam2.1 aminoacylation ribozyme variant] | 0.319 | 0.868 | 1.15 | 0.885 | 1.01 | 0.945 |
| AUUACCCUGGUUAUCGUGUGA [Fam2.1 aminoacylation ribozyme variant] | 2.76 | 15 | 2.4 | 1.49 | 2.3 | 1.27 |
| AUUACCCUGGUUAUUGAGUGA [Fam2.1 aminoacylation ribozyme variant] | 17.8 | 102 | 14.4 | 6.4 | 15.1 | 6.24 |
| AUUACCCUGUUCAUAGAGUGA [Fam2.1 aminoacylation ribozyme variant] | 18 | 110 | 15.6 | 6.44 | 14.6 | 6.48 |
| AUUACCCUGUUGAUCGAGUGA [Fam2.1 aminoacylation ribozyme variant] | 16.8 | 78.3 | 12.5 | 5.71 | 13 | 5.62 |
| AUUACCCUUGGCAUCGAGUGA [Fam2.1 aminoacylation ribozyme variant] | 8.88 | 31.7 | 6 | 3.39 | 6.72 | 2.75 |
| AUUACCCUUGUCAUCGAGUAA [Fam2.1 aminoacylation ribozyme variant] | 1.53 | 0.935 | 1.36 | 1.13 | 1.22 | 1.19 |
| AUUACCCUUGUCAUCGAGUCA [Fam2.1 aminoacylation ribozyme variant] | 0.591 | 0.6 | 0.756 | 0.841 | 0.708 | 0.895 |
| AUUACCCUUGUCAUCGAGUGG [Fam2.1 aminoacylation ribozyme variant] | 1 | 1.98 | 2.03 | 1.54 | 1.85 | 1.25 |
| AUUACCCUUGUCAUCGAGUGU [Fam2.1 aminoacylation ribozyme variant] | 3.65 | 8.43 | 2.89 | 2.03 | 3.08 | 1.71 |
| AUUACCGGGGUCAUCGAGUGA [Fam2.1 aminoacylation ribozyme variant] | 6.27 | 33.8 | 5.81 | 3.67 | 6.14 | 3.48 |
| AUUACCGUGGGCAUCGAGUGA [Fam2.1 aminoacylation ribozyme variant] | 5.68 | 34.7 | 5.35 | 3.22 | 6.2 | 3.09 |
| AUUACCGUGGUCAUCGACUGA [Fam2.1 aminoacylation ribozyme variant] | 0.507 | 0.518 | 0.911 | 1.11 | 0.742 | 1.06 |
| AUUACCGUGGUCAUCGAGUGA [Fam2.1 aminoacylation ribozyme variant] | 7.62 | 35.1 | 6.27 | 3.68 | 6.4 | 3.39 |
| AUUACCGUGGUCAUCGAGUGC [Fam2.1 aminoacylation ribozyme variant] | 1 | 2.57 | 0.762 | 1.05 | 1.08 | 0.895 |
